How the values were obtained:
[1] = molecular target: human p140 TrkA receptor (human) (UniProt P04629); assay: 125I[NGF] binding to E25 cells blocked with 5 µM unlabeled NGF (defined as background)
[2] = molecular target: human p140 TrkA receptor (human) (UniProt P04629); assay: FACScan 5C3 surface staining of 4-3.6 cells after NGF treatment at 4° C., relative to vehicle (100%); competitor mAb 5C3
[3] = molecular target: human p140 TrkA receptor (human) (UniProt P04629); assay: cell-based or functional assay
[4] = molecular target: human p140 TrkA receptor (human) (UniProt P04629); assay: FACScan 5C3 surface staining of 4-3.6 cells after NGF treatment at 37° C., relative to vehicle (100%); competitor mAb 5C3
[5] = molecular target: human p140 TrkA receptor (human) (UniProt P04629); assay: 125I[NGF] (~1 nM) binding to E25 cells after preincubation with excess unlabeled mAb 5C3; competitor unlabeled mAb 5C3
[6] = molecular target: human p140 TrkA receptor (human) (UniProt P04629); assay: Scatchard analysis of 125I[5C3] binding to E25 cells, 4° C.
[7] = molecular target: human p140 TrkA receptor (human) (UniProt P04629); assay: 125I[NGF] binding to E25 cells after preincubation with excess unlabeled mAb 5C3
[8] = molecular target: human p140 TrkA receptor (human) (UniProt P04629); assay: Scatchard analysis of 125I[5C3] binding to 4-3.6 cells, 4° C.
[9] = molecular target: human p140 TrkA receptor (human) (UniProt P04629); assay: Scatchard analysis of 125I[5C3] binding to E25 cells
[10] = molecular target: human p140 TrkA receptor (human) (UniProt P04629); assay: Scatchard analysis of 125I[5C3] binding to 4-3.6 cells
[11] = molecular target: human p140 TrkA receptor (human) (UniProt P04629); assay: summary of the 125I[5C3] binding studies

UniProt P04629, sequence (P04629 33-796): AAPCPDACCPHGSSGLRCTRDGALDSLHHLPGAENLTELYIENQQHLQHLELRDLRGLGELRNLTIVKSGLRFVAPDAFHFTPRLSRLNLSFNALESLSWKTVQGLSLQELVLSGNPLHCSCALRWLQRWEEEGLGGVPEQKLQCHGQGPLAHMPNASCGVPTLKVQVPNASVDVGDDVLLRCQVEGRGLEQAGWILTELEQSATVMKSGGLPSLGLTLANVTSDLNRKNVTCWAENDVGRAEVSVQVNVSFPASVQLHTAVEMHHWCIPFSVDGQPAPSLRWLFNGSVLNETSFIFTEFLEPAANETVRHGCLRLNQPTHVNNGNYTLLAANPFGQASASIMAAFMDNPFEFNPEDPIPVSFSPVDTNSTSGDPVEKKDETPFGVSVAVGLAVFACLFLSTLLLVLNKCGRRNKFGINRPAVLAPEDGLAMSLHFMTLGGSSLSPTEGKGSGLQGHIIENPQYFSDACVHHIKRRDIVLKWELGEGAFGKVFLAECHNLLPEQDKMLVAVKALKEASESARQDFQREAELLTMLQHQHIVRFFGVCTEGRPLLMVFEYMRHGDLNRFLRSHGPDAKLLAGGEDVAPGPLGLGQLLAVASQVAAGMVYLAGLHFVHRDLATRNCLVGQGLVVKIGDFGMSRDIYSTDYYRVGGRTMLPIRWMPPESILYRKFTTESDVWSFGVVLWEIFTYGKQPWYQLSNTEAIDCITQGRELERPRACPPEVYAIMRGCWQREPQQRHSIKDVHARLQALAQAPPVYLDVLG

% NGF BINDING [1]	% 5C3 STAINING [2]	FOLD INCREASE IN FOCI with respect to mIgG treated cells [3]	TYPICAL CELLS/FOCI (E25 cells in soft agar) [3]	fold increase in PY of TrkA with respect to untreated cells (4-3.6 cells) [3]	fold increase in PY of TrkA with respect to untreated cells (E25 cells) [3]	% 5C3 STAINING [4]	% NGF BINDING [5]	Kd [6]	% inhibition of 125I[NGF] binding [7]	% 5C3 STAINING after 5C3 (0.01 µg/ml) treatment at 4° C. (receptor internalization, 4-3.6 cells) [3]	% 5C3 STAINING after 5C3 (0.01 µg/ml) treatment at 37° C. (receptor internalization, 4-3.6 cells) [3]	Kd [8]	5C3 binding sites/cell [9]	5C3 binding sites/cell [10]	Kd [11]	Substance
0%	83%	1.6 fold	24 cells/foci	3.8 fold	6.5 fold	75%										Nerve Growth Factor (ligand)
		1.9 fold	> 48 cells/foci	3.4 fold	2.7 fold		39.3%	1.6 nM	60%	96%	77%	3 nM	250000 sites/cell	200000 sites/cell	2 nM	anti-human TrkA monoclonal antibody 5C3
